These results are taken from patent US10428140B2, “Anti-EphA4 antibody” (EISAI R&D MANAGEMENT CO., LTD., priority 2015, dated 2019).

Holding throughout (experiment): Selectivity ELISA of humanized antibodies for human Eph receptor
Common to all, as to type: binding

For one test, the target named is T1, human EphB1 (Homo sapiens, UniProt P54762).
T1 construct: a protein of the extracellular region of each human Eph receptor fused with the SEAP protein and the His tag; made in house; host or cells: Expi293F cells (culture supernatant)
T1 sequence (P54762 18-540 limits assumed): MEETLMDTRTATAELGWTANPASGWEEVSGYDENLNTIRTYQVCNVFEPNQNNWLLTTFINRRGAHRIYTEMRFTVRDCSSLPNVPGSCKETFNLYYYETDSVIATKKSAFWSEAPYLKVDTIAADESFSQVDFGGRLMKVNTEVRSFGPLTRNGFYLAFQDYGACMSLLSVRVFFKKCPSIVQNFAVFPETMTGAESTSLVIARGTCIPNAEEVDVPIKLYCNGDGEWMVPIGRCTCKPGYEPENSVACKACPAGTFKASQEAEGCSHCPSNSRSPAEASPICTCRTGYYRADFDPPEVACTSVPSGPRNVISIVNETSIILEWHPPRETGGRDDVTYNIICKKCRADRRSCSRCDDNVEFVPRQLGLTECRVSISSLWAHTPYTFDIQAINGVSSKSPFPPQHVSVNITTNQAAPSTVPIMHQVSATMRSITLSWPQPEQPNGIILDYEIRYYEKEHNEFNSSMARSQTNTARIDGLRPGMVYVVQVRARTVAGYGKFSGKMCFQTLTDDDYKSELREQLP
As to conditions: coated protein 1 nM. Summed up:
(§1)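 His-tagged SEAP fusions of each human Eph receptor extracellular region, from Expi293F supernatants, were captured at 1 nM on anti-His-coated wells. Humanized antibody was bound 1 h at room temperature, then detected with HRP […] IgG. TMB development was acid-stopped and read at 450 nm.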

A further test has as its target T2, human EphB2 (Homo sapiens, UniProt P29323).
T2 construct: a protein of the extracellular region of each human Eph receptor fused with the SEAP protein and the His tag; made in house; host or cells: Expi293F cells
T2 sequence (P29323 19-543 limits assumed): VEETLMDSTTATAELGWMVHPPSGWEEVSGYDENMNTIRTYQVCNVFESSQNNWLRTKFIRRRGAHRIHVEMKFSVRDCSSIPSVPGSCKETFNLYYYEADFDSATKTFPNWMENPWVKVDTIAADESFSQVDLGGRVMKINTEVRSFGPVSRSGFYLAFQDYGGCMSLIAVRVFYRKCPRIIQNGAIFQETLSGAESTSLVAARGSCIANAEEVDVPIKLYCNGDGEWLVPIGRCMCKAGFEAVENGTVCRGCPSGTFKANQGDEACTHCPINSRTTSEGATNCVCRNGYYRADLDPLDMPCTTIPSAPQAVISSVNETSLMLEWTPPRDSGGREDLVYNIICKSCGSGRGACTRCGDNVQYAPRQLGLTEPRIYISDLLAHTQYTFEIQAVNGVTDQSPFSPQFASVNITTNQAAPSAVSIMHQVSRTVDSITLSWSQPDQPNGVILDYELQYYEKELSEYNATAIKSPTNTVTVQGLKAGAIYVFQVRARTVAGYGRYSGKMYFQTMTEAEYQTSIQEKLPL
As to conditions: coated protein 1 nM. Summed up:
as §1

The target of another test is T3, human EphA4 (Homo sapiens, UniProt P54764).
T3 construct: made in house; not restated for the human SEAP-His protein
T3 sequence (P54764 20-547): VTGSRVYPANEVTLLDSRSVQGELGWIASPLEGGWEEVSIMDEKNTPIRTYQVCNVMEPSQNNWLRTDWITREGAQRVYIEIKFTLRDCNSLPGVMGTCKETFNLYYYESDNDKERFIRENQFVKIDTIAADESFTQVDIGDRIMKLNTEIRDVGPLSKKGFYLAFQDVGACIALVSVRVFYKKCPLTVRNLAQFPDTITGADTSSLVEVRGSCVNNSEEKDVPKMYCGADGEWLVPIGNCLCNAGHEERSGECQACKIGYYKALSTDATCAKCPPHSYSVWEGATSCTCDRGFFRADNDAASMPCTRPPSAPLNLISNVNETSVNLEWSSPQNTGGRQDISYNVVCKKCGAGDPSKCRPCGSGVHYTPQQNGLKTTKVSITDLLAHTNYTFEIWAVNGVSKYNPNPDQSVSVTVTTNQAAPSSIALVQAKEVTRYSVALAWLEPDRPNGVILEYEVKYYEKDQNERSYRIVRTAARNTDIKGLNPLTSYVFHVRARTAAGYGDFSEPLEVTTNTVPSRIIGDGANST
Conditions: coated protein 1 nM; reference set to 100%. Summed up:
as §1

In another test the target is T4, human EphA1 (Homo sapiens, UniProt P21709).
T4 construct: a protein of the extracellular region of each human Eph receptor fused with the SEAP protein and the His tag; made in house; host or cells: Expi293F cells (culture supernatant)
T4 sequence (P21709 26-547 limits assumed): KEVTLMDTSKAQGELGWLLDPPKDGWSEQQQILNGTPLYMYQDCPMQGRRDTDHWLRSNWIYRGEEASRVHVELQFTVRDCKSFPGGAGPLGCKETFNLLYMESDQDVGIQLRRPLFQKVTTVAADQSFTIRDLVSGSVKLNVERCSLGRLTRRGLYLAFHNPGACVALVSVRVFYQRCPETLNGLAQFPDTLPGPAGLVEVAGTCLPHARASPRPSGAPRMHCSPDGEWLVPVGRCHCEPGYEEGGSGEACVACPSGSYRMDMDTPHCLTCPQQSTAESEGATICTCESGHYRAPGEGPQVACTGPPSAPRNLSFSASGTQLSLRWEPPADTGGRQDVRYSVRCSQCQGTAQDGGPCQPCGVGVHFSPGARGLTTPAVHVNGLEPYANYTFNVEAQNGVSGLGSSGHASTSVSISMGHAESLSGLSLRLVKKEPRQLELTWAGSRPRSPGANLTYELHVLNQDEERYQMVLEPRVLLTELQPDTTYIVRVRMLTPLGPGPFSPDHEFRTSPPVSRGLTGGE
As to conditions: coated protein 1 nM. An outline of the steps: as §1

B1: 87 (antibody, V domains shown)
VL: DIQMTQSPSSLSASVGDRVTITCRASENIYRNLAWYQQKPGKAPQLLLYAATNLADGVPSRFSGSGSGTDYTLTISSLQPEDFATYYCQHFWGTPWTFGQGTKVEIK
VH: QVQLVQSGSELKKPGASVKVSCKASGYTFTDYSMHWVRQAPGQGLEWMGWINTETGEPTYAQGFTGRFVFSLDTSVSTAYLQISSLKAEDTAVYYCARIPLYYYGSRYWYFDVWGQGTTVTVSS
modifications: constant regions without entry; synthetic humanized antibody light chain variable region sequence; synthetic humanized antibody heavy chain variable region sequence
B1: in the test with human EphB1, the “hEphB1-SEAP-: absorbance at 450 nm, percentage with respect to hEphA4-SEAP-His as 100%” value was found to be 5.3%. Moreover, in the test with human EphB2, the “hEphB2-SEAP-: absorbance at 450 nm, percentage with respect to hEphA4-SEAP-His as 100%” value worked out at 5.4%. Further, in the test with human EphA4, the “hEphA4-SEAP-: absorbance at 450 nm, percentage with respect to hEphA4-SEAP-His as 100%” value was 100%. Also, the “hEphA1-SEAP-: absorbance at 450 nm, percentage with respect to hEphA4-SEAP-His as 100%” value with human EphA1 is listed as 5.3%.

B2: 93 (antibody, V domains shown)
VL: EIVMTQSPATLSVSPGERATLSCRASENIYRNLAWYQQKPGQSPRLLIYAATNLADGIPARFSGSGSGTEYTLTISSLQSEDFAVYYCQHFWGTPWTFGQGTKVEIK
VH: QVQLVQSGSELKKPGASVKVSCKASGYTFTDYSMHWVRQAPGQGLEWMGWINTETGEPTYAQGFTGRFVFSLDTSVSTAYLQISSLKAEDTAVYYCARIPLYYYGSRYWYFDVWGQGTTVTVSS
modifications: constant regions without entry; synthetic humanized antibody light chain variable region sequence; synthetic humanized antibody heavy chain variable region sequence
With B2, the “hEphB1-SEAP-: absorbance at 450 nm, percentage with respect to hEphA4-SEAP-His as 100%” value with human EphB1 was determined as 5.0%. The “hEphB2-SEAP-: absorbance at 450 nm, percentage with respect to hEphA4-SEAP-His as 100%” value in the test with human EphB2 turned out to be 5.0%. For the same molecule, the “hEphA4-SEAP-: absorbance at 450 nm, percentage with respect to hEphA4-SEAP-His as 100%” value in the test with human EphA4 is given as 100%. Further, the “hEphA1-SEAP-: absorbance at 450 nm, percentage with respect to hEphA4-SEAP-His as 100%” value with human EphA1 came out at 5.0%.

B3: 88 (antibody, V domains shown)
VL: DIQMTQSPSSLSASVGDRVTITCRASENIYRNLAWYQQKPGKAPQLLLYAATNLADGVPSRFSGSGSGTDYTLTISSLQPEDFATYYCQHFWGTPWTFGQGTKVEIK
VH: QVQLVQSGSELKKPGASVKVSCKASGYTFTDYSMHWVRQAPGQGLKWMGWINTETGEPTYAQGFTGRFVFSLDTSVSTAYLQISSLKAEDTAVYYCARIPLYYYGSRYWYFDVWGQGTTVTVSS
modifications: constant regions without entry; synthetic humanized antibody light chain variable region sequence; synthetic humanized antibody heavy chain variable region sequence
For B3, the “hEphB1-SEAP-: absorbance at 450 nm, percentage with respect to hEphA4-SEAP-His as 100%” value with human EphB1 is reported as 6.1%. For the same molecule, the “hEphB2-SEAP-: absorbance at 450 nm, percentage with respect to hEphA4-SEAP-His as 100%” value in the test with human EphB2 came out at 6.0%. Besides, the “hEphA4-SEAP-: absorbance at 450 nm, percentage with respect to hEphA4-SEAP-His as 100%” value in the test with human EphA4 was 100%. For the same molecule, the “hEphA1-SEAP-: absorbance at 450 nm, percentage with respect to hEphA4-SEAP-His as 100%” value in the test with human EphA1 is reported as 5.8%.

B4: 90 (antibody, V domains shown)
VL: DIQMTQSPSSLSASVGDRVTITCRASENIYRNLAWYQQKPGKAPQLLLYAATNLADGVPSRFSGSGSGTDYTLTISSLQPEDFATYYCQHFWGTPWTFGQGTKVEIK
VH: QVQLVQSGSELKKPGASVKVSCKASGYTFTDYSMHWVRQAPGQGLEWMGWINTETGEPTYADDFKGRFVFSLDTSVSTAYLQISSLKAEDTAVYYCARIPLYYYGSRYWYFDVWGQGTTVTVSS
modifications: constant regions without entry; synthetic humanized antibody light chain variable region sequence; synthetic humanized antibody heavy chain variable region sequence
Turning to B4, in the test with human EphB1, the “hEphB1-SEAP-: absorbance at 450 nm, percentage with respect to hEphA4-SEAP-His as 100%” value was 4.9%. Also, the “hEphB2-SEAP-: absorbance at 450 nm, percentage with respect to hEphA4-SEAP-His as 100%” value in the test with human EphB2 was found to be 5.9%. Moreover, in the test with human EphA4, the “hEphA4-SEAP-: absorbance at 450 nm, percentage with respect to hEphA4-SEAP-His as 100%” value came out at 100%. The “hEphA1-SEAP-: absorbance at 450 nm, percentage with respect to hEphA4-SEAP-His as 100%” value with human EphA1 was 5.1%.

B5: 91 (antibody, V domains shown)
VL: DIQMTQSPSSLSASVGDRVTITCRASENIYRNLAWYQQKPGKAPQLLLYAATNLADGVPSRFSGSGSGTDYTLTISSLQPEDFATYYCQHFWGTPWTFGQGTKVEIK
VH: QVQLVQSGSELKKPGASVKVSCKASGYTFTDYSMHWVRQAPGQGLKWMGWINTETGEPTYADDFKGRFVFSLDTSVSTAYLQISSLKAEDTAVYYCARIPLYYYGSRYWYFDVWGQGTTVTVSS
modifications: constant regions without entry; synthetic humanized antibody light chain variable region sequence; synthetic humanized antibody heavy chain variable region sequence
In the case of B5, in the test with human EphB1, the “hEphB1-SEAP-: absorbance at 450 nm, percentage with respect to hEphA4-SEAP-His as 100%” value was 6.6%. Besides, the “hEphB2-SEAP-: absorbance at 450 nm, percentage with respect to hEphA4-SEAP-His as 100%” value in the test with human EphB2 came out at 7.0%. The “hEphA4-SEAP-: absorbance at 450 nm, percentage with respect to hEphA4-SEAP-His as 100%” value with human EphA4 is given as 100%. Besides, the “hEphA1-SEAP-: absorbance at 450 nm, percentage with respect to hEphA4-SEAP-His as 100%” value with human EphA1 stood at 5.8%.

B6: 92 (antibody, V domains shown)
VL: DIQMTQSPSSLSASVGDRVTITCRASENIYRNLAWYQQKPGKAPQLLLYAATNLADGVPSRFSGSGSGTDYTLTISSLQPEDFATYYCQHFWGTPWTFGQGTKVEIK
VH: QIQLVQSGSELKKPGASVKVSCKASGYTFTDYSMHWVRQAPGQGLKWMGWINTETGEPTYADDFKGRFVFSLDTSVSTAYLQISSLKAEDTAVYYCARIPLYYYGSRYWYFDVWGQGTTVTVSS
modifications: constant regions without entry; synthetic humanized antibody light chain variable region sequence; synthetic humanized antibody heavy chain variable region sequence
With B6, the “hEphB1-SEAP-: absorbance at 450 nm, percentage with respect to hEphA4-SEAP-His as 100%” value with human EphB1 was 6.9%. Besides, the “hEphB2-SEAP-: absorbance at 450 nm, percentage with respect to hEphA4-SEAP-His as 100%” value in the test with human EphB2 was 6.6%. For the same molecule, the “hEphA4-SEAP-: absorbance at 450 nm, percentage with respect to hEphA4-SEAP-His as 100%” value in the test with human EphA4 is reported as 100%. Moreover, the “hEphA1-SEAP-: absorbance at 450 nm, percentage with respect to hEphA4-SEAP-His as 100%” value in the test with human EphA1 was 7.0%.

B7: 89 (antibody, V domains shown)
VL: DIQMTQSPSSLSASVGDRVTITCRASENIYRNLAWYQQKPGKAPQLLLYAATNLADGVPSRFSGSGSGTDYTLTISSLQPEDFATYYCQHFWGTPWTFGQGTKVEIK
VH: QIQLVQSGSELKKPGASVKVSCKASGYTFTDYSMHWVRQAPGQGLKWMGWINTETGEPTYAQGFTGRFVFSLDTSVSTAYLQISSLKAEDTAVYYCARIPLYYYGSRYWYFDVWGQGTTVTVSS
modifications: constant regions without entry; synthetic humanized antibody light chain variable region sequence; synthetic humanized antibody heavy chain variable region sequence
Consider B7, for which the “hEphB1-SEAP-: absorbance at 450 nm, percentage with respect to hEphA4-SEAP-His as 100%” value in the test with human EphB1 turned out to be 5.7%. Also, in the test with human EphB2, the “hEphB2-SEAP-: absorbance at 450 nm, percentage with respect to hEphA4-SEAP-His as 100%” value stood at 5.7%. Moreover, in the test with human EphA4, the “hEphA4-SEAP-: absorbance at 450 nm, percentage with respect to hEphA4-SEAP-His as 100%” value is recorded as 100%. In addition, in the test with human EphA1, the “hEphA1-SEAP-: absorbance at 450 nm, percentage with respect to hEphA4-SEAP-His as 100%” value came to 5.5%.
